Measured values taken from publication PMC8238508, “Protein-based condensation mechanisms drive the assembly of RNA-rich P granules”.

Legend:
MEG-3 (wild type) = biological target: T1, MEG-3 (wild type) (Caenorhabditis elegans, UniProt Q9TXM1 1-862); assay: filter binding; mean and SD computed from four replicate fits: 809.8, 808.8, 661.5, 695.9; Hill model; 50 nM RNA; 3.75 mM HEPES (stock pH 7.4), 150 mM NaCl, 0.9 mM beta-mercaptoethanol, 1.5% glycerol, 10 mM Tris HCl; 30 min, room temperature; nitrocellulose/Hybond-N+ dot blot; settings: protein: recombinant; tags: N-terminal 6xHis (pET28a); label: 3' fluorescein
T1 sequence: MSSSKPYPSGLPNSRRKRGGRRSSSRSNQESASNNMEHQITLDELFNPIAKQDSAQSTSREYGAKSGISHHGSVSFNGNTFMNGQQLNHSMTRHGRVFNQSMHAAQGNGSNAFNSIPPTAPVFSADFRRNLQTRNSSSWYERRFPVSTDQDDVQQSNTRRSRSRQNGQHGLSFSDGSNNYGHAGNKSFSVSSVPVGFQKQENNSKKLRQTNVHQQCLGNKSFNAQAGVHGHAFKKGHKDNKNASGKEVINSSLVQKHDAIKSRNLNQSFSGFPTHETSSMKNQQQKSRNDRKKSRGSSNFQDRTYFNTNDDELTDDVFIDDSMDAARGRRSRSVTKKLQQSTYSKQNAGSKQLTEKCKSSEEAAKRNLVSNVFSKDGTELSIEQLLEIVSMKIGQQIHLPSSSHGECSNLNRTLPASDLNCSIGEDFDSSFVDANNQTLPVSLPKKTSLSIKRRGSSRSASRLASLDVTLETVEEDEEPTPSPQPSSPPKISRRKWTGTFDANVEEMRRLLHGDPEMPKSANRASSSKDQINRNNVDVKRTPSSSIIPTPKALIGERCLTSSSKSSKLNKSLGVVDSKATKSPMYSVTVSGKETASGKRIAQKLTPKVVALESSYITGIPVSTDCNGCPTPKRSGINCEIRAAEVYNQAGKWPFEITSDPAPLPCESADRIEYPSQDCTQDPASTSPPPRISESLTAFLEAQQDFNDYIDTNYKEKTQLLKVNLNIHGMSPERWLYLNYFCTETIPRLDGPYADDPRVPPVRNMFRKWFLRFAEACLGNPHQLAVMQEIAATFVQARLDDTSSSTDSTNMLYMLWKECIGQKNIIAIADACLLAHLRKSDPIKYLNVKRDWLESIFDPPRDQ

MEG-3 IDR = biological target: T2, MEG-3 IDR (Caenorhabditis elegans, UniProt Q9TXM1 1-544); assay: filter binding; mean and SD computed from four replicate fits: 109.3, 83.64, 103.3, 107.9; Hill model; curve assigned by legend order; 50 nM RNA; 3.75 mM HEPES (stock pH 7.4), 150 mM NaCl, 0.9 mM beta-mercaptoethanol, 1.5% glycerol, 10 mM Tris HCl; 30 min, room temperature; nitrocellulose/Hybond-N+ dot blot; settings: protein: recombinant; tags: N-terminal 6xHis (pET28a); label: 3' fluorescein
T2 sequence: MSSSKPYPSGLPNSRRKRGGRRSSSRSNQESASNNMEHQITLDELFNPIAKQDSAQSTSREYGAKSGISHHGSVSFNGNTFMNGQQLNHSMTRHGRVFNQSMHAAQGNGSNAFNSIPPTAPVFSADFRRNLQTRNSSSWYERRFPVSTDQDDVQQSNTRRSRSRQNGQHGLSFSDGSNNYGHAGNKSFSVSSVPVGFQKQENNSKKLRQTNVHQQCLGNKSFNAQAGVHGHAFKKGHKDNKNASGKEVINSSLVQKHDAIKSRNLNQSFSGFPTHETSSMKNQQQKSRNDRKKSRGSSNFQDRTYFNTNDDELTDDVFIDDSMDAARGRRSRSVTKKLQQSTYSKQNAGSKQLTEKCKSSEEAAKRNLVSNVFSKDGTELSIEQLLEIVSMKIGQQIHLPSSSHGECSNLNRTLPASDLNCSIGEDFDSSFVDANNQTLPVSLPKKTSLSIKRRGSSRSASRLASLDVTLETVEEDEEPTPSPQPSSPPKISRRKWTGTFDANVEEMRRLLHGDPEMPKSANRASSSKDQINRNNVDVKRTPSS

B1: poly-U(30) (30U) (ssRNA)
RNA: UUUUUUUUUUUUUUUUUUUUUUUUUUUUUU
B1 showed a Kd (MEG-3 (wild type)) of 744 ± 77 nM and a Kd (MEG-3 IDR) of 101 ± 12 nM.
